The values that follow come from the supplement of paper PMC9170038.

The series has as its system MS2 coat protein. Put plainly: apparent KD of MS2 coat protein; designed switch direction (-1 OFF switch, 1 ON switch): -1; higher = weaker reporter binding. In short, it runs like this: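 On Illumina chips, designed RNA switches with common flanks were made by stalled E. coli RNA polymerase. Titrations with SNAP-549-labelled MS2 coat protein, doubling from 0.7 or 1.5 nM to 3 µM, were done with no input, with 200 uM small-molecule ligand, or with an oligonucleotide input. Apparent KD is the median per design over clusters, from curve fits of normalised cluster fluorescence.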

Setting [1] is: input ligand: microRNA oligo, concentration not stated.
The mark [2] stands for this setting: Eterna round: R95, input ligand: FMN 200 uM.
The mark [3] stands for this setting: Eterna round: R95, input ligand: microRNA oligo, concentration not stated.
The mark [4] stands for this setting: Eterna round: R95, input ligand: none.

In the case of “AGUAAGCUAGGAUAUGCUUUGGGAAAGCAUUCCUUCGAUAAACUUGAGGAUCACCCAAGUAGAAGGAGCUUACA [salish99_ex2_r4_004] (Eterna round: R97, puzzle: Exclusion 2)”, the “apparent KD of MS2 coat protein” value by setting is: (input ligand: FMN 200 uM) 20.2 nM; (input ligand: none) 13.8 nM.

“CAGGUGUAAGGAUAUACCGGAUGGUCCAAAGCUUGGCAAAGACAUGAGGAUCACCCAUGUAGAAGGUACGUCCG [Eternabot (Original) Solution 21] (Eterna round: R97, puzzle: Exclusion 2)”: the “apparent KD of MS2 coat protein” value is, setting by setting: (input ligand: FMN 200 uM) 313 nM; (input ligand: none) 383 nM.

“CUGCUCCGUGUAGGAUAUCGCCGCACCACCCGGCGAGAAGGACAUGAGGAUCACCCAUGUAUGUUAUUAUCACGUGUGGCGCGA [Design 41] (Eterna round: R96, puzzle: Exclusion NG 1)”: the “apparent KD of MS2 coat protein” value is 16.4 nM (input ligand: FMN 200 uM), 13.9 nM under setting [1] and 17.1 nM (input ligand: none).

For the sequence “CGCGCCUGGGUCGAACGACACAUGAGGAUCACCCAUGUCAGAGGCGUAGAAUGCACAAGCUUUGACCUCGUUACGCU [Eternabot (L2) Solution 39] (Eterna round: R97, puzzle: Sensor, turn-off variant 1)”, the “apparent KD of MS2 coat protein” value came to 18 nM (input ligand: FMN 200 uM) and 18.5 nM (input ligand: none).

Regarding “CGGCGACAUGAGGAUCACCCAUGUGAGGAUAUGACGGGAAAAGCGUGAGCAGUUUGUGGCAGAAGGCGCGUAGG [salish99_ex1_r4_083] (Eterna round: R97, puzzle: Exclusion 1)”, the “apparent KD of MS2 coat protein” value by setting is: (input ligand: FMN 200 uM) 23.5 nM; (input ligand: none) 117 nM.

Regarding “CGUAGCAAAGUGAGGAUAUCUAGAGCGAUAGCUCUAGAGAAGGCACAUGAGGAUCACCCAUGUGAUUAGCUACG [BmEx4/9-A4] (Eterna round: R97, puzzle: Brourd's mod of Exclusion 4)”, the “apparent KD of MS2 coat protein” value reads like this: (input ligand: FMN 200 uM) 146 nM; (input ligand: none) 27.8 nM.

As for “GCACGGAUGGUAGGAUAUCAUUGCGAUUAGCUAUGAGAAGGACCACAUGAGGAUCACCCAUGUCCUCUAAUUAGCCUUCCGUGC [Eli exng1 - 016] (Eterna round: R96, puzzle: Exclusion NG 1)”, the “apparent KD of MS2 coat protein” value under setting [1] is 156 nM.

“AGAAAUGCCCAUGGCCGCAAGCUUUCUGCUUGUCUUACCACAUGAGGAUCACCCAUGUGACAUGGGCUCCUUAUAAU [Soralaer] (puzzle: Sensor v3, turn-off variant 2)”: the “apparent KD of MS2 coat protein” value by setting is: under setting [2], 14.4 nM; under setting [3], 11 nM; under setting [4], 13.2 nM.

As to “UUUAGUUCAGGAUAUGUAGAAUUAAACAUGAGGAUCACCCAUGUAGUUCCUGAUCCUGCUACAGAAGGGAACAUUU [Mat - Exclusion 5 - Eli Mod - D13] (Eterna round: R97, puzzle: Exclusion 5)”, the “apparent KD of MS2 coat protein” value is 24.8 nM (input ligand: FMN 200 uM) and 17.2 nM (input ligand: none).

For the sequence “UUUAAAACAUAGGAUAUCGAAAUUAUCAUUUAACGAGAAGGAUGAACAUGAGGAUCACCCAUGUGGUAUCAUGG [Mat - Exclusion 6 - JL Mod - D17] (puzzle: Exclusion 6)”, the “apparent KD of MS2 coat protein” value reads like this: under setting [2], 202 nM; under setting [3], 184 nM; under setting [4], 123 nM.

For the sequence “AGAACUCUAGUAGGAUAUGUCGGAUAUGUUGUUGAGGUUCACCCAACGACGUCAAUGACAGAAGGACAGAAGGACUCCUGUUCA [pwkr exNG2 2xFMN 1xF5.8] (Eterna round: R96, puzzle: Exclusion NG 2)”, the “apparent KD of MS2 coat protein” value reads like this: (input ligand: FMN 200 uM) 1020 nM; under setting [1], 3670 nM; (input ligand: none) 711 nM.

“GUAUAACAUGUAGGAUAUGCGUGGCGAAGCUAUGCAGAAGGACAUGAGGAUCACCCAUGUUUUAGCGUCUGCGUACAGAUGCAA [JL ENG1 1.39] (Eterna round: R96, puzzle: Exclusion NG 1)”: the “apparent KD of MS2 coat protein” value is, setting by setting: (input ligand: FMN 200 uM) 143 nM; under setting [1], 20.1 nM; (input ligand: none) 26.3 nM.

Take “CUUUUGUGAGGAUAUCAGUAGUAAAAAAAUUAAAUUACUACUGAGAAGGCACAUGAGGAUCACCCAUGUUCCUC [salish99_ex4_r3_022] (puzzle: Exclusion 4)”: under setting [3], the “apparent KD of MS2 coat protein” value amounted to 36.4 nM.

Regarding “AUAUUACGAGGAUAUCGUUUUUUUCACAUGAGGAUCACCCAUGUUAUUUAUGUUUCGUUUCGAGAAGGCGUAAGUU [JR_E5_Sub069] (puzzle: Exclusion 5)”, the “apparent KD of MS2 coat protein” value under setting [3] stood at 22.3 nM.

Consider “AUUUUGUGAGGAUAUGUGGCUUCGAUCGUGAAAUCGAGGCUACAGAAGGCACAUGAGGAUCACCCAUGUUCCUA [salish99_ex4_r4_117] (Eterna round: R97, puzzle: Exclusion 4)”, for which the “apparent KD of MS2 coat protein” value reads like this: (input ligand: FMN 200 uM) 178 nM; (input ligand: none) 19.6 nM.

Turning to “UGAGUGCUGCGAGGAUAUACAUGAGGAUCACCCAUGUGGUCCUGUGAGGCAAAGCCUCACAGGAUGUAGAAGGCGCAGUACUCU [Mat - Exclusion NG 2 - Mod of JL - D45] (Eterna round: R96, puzzle: Exclusion NG 2)”, the “apparent KD of MS2 coat protein” value (input ligand: FMN 200 uM) is 95.2 nM, the “apparent KD of MS2 coat protein” value under setting [1] turned out to be 13.7 nM and the “apparent KD of MS2 coat protein” value (input ligand: none) is 22.5 nM.

For the sequence “UUAUAUAAUGUGAGGAUAUGCUGGUCGAUAGAUCAGCAGAAGGCACAUGAGGAUCACCCAUGUAGUAAAUUUUA [Mat - Exclusion 4 - JL Mod - D13] (puzzle: Brourd's mod of Exclusion 4)”, the “apparent KD of MS2 coat protein” value is 25.5 nM under setting [2], 16.4 nM under setting [3] and 16.2 nM under setting [4].

As for “AUCAUGGGAGGAUAUCACCUAUGUUACAUGAGGAUCACCCAUGUGAGACUAAAUGACUGCUGAGAAGGCUCAACGC [Eternabot (Original) Solution 25] (Eterna round: R97, puzzle: Exclusion 5)”, the “apparent KD of MS2 coat protein” value reads like this: (input ligand: FMN 200 uM) 205 nM; (input ligand: none) 234 nM.

Take “UAUAUAUAGUAAGGAUAUGUAUAUAUUUUAUUAACAGAAGGUACUGACAUGAGGAUCACCCAUGUUUUAGUGUGGGCAUGUAGA [JMF's solution 69] (Eterna round: R96, puzzle: Exclusion NG 1)”: the “apparent KD of MS2 coat protein” value under setting [1] came out at 55.2 nM.

Regarding “CCUCCACAUGAGGAUCACCCAUGUCAGGAUAUCGUGUGUUUUUUUUCGGUCUUGCGUGCGAGAAGGGACGUCUU (puzzle: Exclusion 1)”, the “apparent KD of MS2 coat protein” value under setting [3] was 32.5 nM.

Take “CCGUGGUUAGGAUAUUCGAAUGAGCACAUGAGGAUCACCCAUGUCUGAAUUGACAGCCGAGAAGAAGGAACCACUC [Eternabot (L2) Solution 24] (Eterna round: R97, puzzle: Exclusion 5)”: the “apparent KD of MS2 coat protein” value (input ligand: FMN 200 uM) came out at 29.5 nM and the “apparent KD of MS2 coat protein” value (input ligand: none) is 23.3 nM.

“AUUAUGUUAGGAUAUGCUUAUGGUGGAUAAUCGGAUAUGAUGCAGAAGGGACAUGAGGAUCACCCAUGUACUGU [EX4 #23] (Eterna round: R97, puzzle: Exclusion 4)”: the “apparent KD of MS2 coat protein” value is 21.5 nM (input ligand: FMN 200 uM) and 22.1 nM (input ligand: none).

On to “CUUUUGUGAGGAUAUUAGUAGUAAAUAAAUAAUAUUACUACUGAGAAGGCACAUGAGGAUCACCCAUGUUCCUC [salish99_ex4_r3_059] (puzzle: Exclusion 4)”, for which, under setting [3], the “apparent KD of MS2 coat protein” value is 38.8 nM.

For “UUUUUAUAUGAAGGAUAUACUUAACAUGAGGAUCACCCAUGUGGUGUUGUGAGUGAGUGAGUUUAGUAGAAGGUCAAGUAUUUU [JMF's solution 8] (Eterna round: R96, puzzle: Exclusion NG 2)”, the “apparent KD of MS2 coat protein” value runs as follows: (input ligand: FMN 200 uM) 431 nM; under setting [1], 265 nM; (input ligand: none) 431 nM.

With “GAUUUUCAUGUAGGAUAUUCCACACAACAACUGGGAGAAGGACAUGAGGAUCACCCAUGUCCUACAACAACUUCAACAAACACA [Weak Sauce] (Eterna round: R96, puzzle: Exclusion NG 1)”, the “apparent KD of MS2 coat protein” value (input ligand: FMN 200 uM) is 15.8 nM, the “apparent KD of MS2 coat protein” value under setting [1] turned out to be 9.75 nM and the “apparent KD of MS2 coat protein” value (input ligand: none) turned out to be 11.4 nM.

With “GUUACACAUGAGGAUCACCCAUGUAAGGAUAUGCUGCGGUCGCGAAAACGUGACUGCAGCAGAAGGUACACAUG [Mat - Mod of JL D61] (puzzle: Exclusion 1)”, the “apparent KD of MS2 coat protein” value under setting [3] was 135 nM.

As for “GGGAAGGGAGGAUAUGAGGGAGAGAACAUGAGGAUCACCCAUGUGAGACCUCAGGAUCGAUCAGAAGGCCCGAUCC [AK-MS2ROC-r4-exclusion5-14] (Eterna round: R97, puzzle: Exclusion 5)”, the “apparent KD of MS2 coat protein” value amounted to 677 nM (input ligand: FMN 200 uM) and 383 nM (input ligand: none).

Take “GAAAAGCGAGGAUAUACUUGCAGUGUACCUCGGGUGAUCUCACUUGAGGAUCACCCAAGUAGAAGGCGCGAGGG [Quletibe] (Eterna round: R97, puzzle: Exclusion 2)”: the “apparent KD of MS2 coat protein” value reads like this: (input ligand: FMN 200 uM) 4.5 nM; (input ligand: none) 45.2 nM.

As for “AGUACUAACACGAAAGUGUUAGUACAAUAAGCUUGUGAAACAUGAGGAUCACCCAUGUCCUCAUAAGCUCGUCUUAG [salish99_TOv2_r3_003] (puzzle: Sensor v3, turn-off variant 2)”, the “apparent KD of MS2 coat protein” value is, setting by setting: under setting [2], 16.4 nM; under setting [3], 280 nM; under setting [4], 15.4 nM.

In the case of “GAUCAACAUGAGGAUCACCCAUGUGAGGAUAUGAUACUAUGUACUUCGGUACAUAGUAUCAGAAGGCACAUAAA [Ex1-3: 38] (puzzle: Exclusion 1)”, the “apparent KD of MS2 coat protein” value under setting [3] was 72.4 nM.

In the case of “GUAGAGUAAGGAUAUACAGAAUAGGAUAGAAUGGUUAGAAUGUAGAAGGUACAUGAGGAUCACCCAUGUAAUGU [Excluse me!!!! 8 - Jieux - Exclusion 4] (puzzle: Exclusion 4)”, under setting [3], the “apparent KD of MS2 coat protein” value was 19.7 nM.

In the case of “CGUGGAUGAAAGGAUAUUGAGGUCUGACUGCCACAAGAAGGUUCAACAUGAGGAUCACCCAUGUCUGAUCCUAA [Xeanorti] (Eterna round: R97, puzzle: Exclusion 6)”, the “apparent KD of MS2 coat protein” value runs as follows: (input ligand: FMN 200 uM) 47.4 nM; (input ligand: none) 14.2 nM.
